From article PMC2643056 (Molecular cell, 2008)

Biological target: T1, His6-Dsk2 (S. cerevisiae, UniProt P48510 1-373)
T1 sequence (looked up): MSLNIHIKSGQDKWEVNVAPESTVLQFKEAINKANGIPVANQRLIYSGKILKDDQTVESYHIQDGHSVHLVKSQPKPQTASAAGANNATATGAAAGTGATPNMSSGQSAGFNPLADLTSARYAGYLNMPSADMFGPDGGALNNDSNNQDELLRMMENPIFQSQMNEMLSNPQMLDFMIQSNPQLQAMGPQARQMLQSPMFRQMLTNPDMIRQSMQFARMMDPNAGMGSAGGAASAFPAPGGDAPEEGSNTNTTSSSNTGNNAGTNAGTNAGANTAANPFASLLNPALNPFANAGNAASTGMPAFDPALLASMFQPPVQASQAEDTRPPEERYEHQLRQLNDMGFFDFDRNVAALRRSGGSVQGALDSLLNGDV
Assay: far-Western, overlay or dot blot

binding result: binds
B1: recombinant Rpn10, full length (natural protein, S. cerevisiae, UniProt P38886 1-268, looked up)
chain: MVLEATVLVIDNSEYSRNGDFPRTRFEAQIDSVEFIFQAKRNSNPENTVGLISGAGANPRVLSTFTAEFGKILAGLHDTQIEGKLHMATALQIAQLTLKHRQNKVQHQRIVAFVCSPISDSRDELIRLAKTLKKNNVAVDIINFGEIEQNTELLDEFIAAVNNPQEETSHLLTVTPGPRLLYENIASSPIILEEGSSGMGAFGGSGGDSDANGTFMDFGVDPSMDPELAMALRLSMEEEQQRQERLRQQQQQQDQPEQSEQPEQHQDK
